One data set addresses T1, human BCRP (Homo sapiens, UniProt Q9UNQ0).
T1 sequence (Q9UNQ0 1-655): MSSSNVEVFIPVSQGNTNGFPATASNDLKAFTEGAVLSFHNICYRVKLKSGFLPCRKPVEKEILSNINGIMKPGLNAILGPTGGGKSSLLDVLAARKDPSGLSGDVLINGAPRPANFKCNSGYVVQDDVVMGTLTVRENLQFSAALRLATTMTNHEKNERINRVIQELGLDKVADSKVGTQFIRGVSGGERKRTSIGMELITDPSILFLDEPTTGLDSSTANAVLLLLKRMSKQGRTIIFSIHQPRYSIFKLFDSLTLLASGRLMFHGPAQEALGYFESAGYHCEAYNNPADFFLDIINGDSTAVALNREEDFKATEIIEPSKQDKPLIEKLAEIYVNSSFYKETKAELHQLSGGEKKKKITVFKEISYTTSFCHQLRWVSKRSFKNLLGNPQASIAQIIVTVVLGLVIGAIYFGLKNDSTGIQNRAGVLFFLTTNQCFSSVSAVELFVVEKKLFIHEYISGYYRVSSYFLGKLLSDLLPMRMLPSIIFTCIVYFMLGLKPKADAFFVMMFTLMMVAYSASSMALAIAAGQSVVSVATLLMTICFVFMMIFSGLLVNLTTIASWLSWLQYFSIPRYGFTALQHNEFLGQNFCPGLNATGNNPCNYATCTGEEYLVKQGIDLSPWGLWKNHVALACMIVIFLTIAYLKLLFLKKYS
The data set can be described thus: Vesicular transport assay, inside-out membrane vesicles expressing human BCRP. As to conditions: positive substrate 20 μM, 10 min; human BCRP. As for the experimental part:
(§1) Inside-out membrane vesicles (5 mg protein/mL), prepared from insect cells expressing human multidrug resistance-associated protein (MRP) 2, MRP3, MRP4, breast cancer resistance protein (BCRP), bile salt export pump (BSEP), and multidrug resistance protein (MDR) one and rat Mrp2, Mrp4, Bcrp, and Bsep, and vesicles (5 mg protein/mL; prepared from the insect cells expressing no ABC transporter; serving as negative control) were obtained from Genomembrane (Kanazawa, Japan).
(§2) The test Danshen compounds at 100 µM final concentration were separately incubated with the membrane vesicles for 10 min. Buffer C (50 mM MOPS-tris, 70 mM KCl, 7.5 mM MgCl2, pH 7.0) was used for preincubation and incubation, while buffer D (40 mM MOPS-tris, 70 mM KCl, pH 7.0) was used for vesicle washing. The transport rate (pmol/mg protein/min) of the test Danshen compound was calculated using Equation (2): Transport=(CV×VV)/T/WV (2) where C V, V V, T, and W V represent concentration of the compound in vesicular lysates supernatant (μM), volume of the lysates (μL), incubation time (10 min), and amount of vesicle protein amount per well (0.05 mg), respectively. Differential transport of the test Danshen compound between ATP-containing vesicles and AMP-containing vesicles was defined as net transport ratio (TransportATP/TransportAMP ratio). […] All the incubation samples were analyzed by liquid chromatography/mass spectrometry.

In a further data set the target is T2, rat Bcrp (Rattus norvegicus, UniProt Q80W57).
T2 sequence (Q80W57 1-657): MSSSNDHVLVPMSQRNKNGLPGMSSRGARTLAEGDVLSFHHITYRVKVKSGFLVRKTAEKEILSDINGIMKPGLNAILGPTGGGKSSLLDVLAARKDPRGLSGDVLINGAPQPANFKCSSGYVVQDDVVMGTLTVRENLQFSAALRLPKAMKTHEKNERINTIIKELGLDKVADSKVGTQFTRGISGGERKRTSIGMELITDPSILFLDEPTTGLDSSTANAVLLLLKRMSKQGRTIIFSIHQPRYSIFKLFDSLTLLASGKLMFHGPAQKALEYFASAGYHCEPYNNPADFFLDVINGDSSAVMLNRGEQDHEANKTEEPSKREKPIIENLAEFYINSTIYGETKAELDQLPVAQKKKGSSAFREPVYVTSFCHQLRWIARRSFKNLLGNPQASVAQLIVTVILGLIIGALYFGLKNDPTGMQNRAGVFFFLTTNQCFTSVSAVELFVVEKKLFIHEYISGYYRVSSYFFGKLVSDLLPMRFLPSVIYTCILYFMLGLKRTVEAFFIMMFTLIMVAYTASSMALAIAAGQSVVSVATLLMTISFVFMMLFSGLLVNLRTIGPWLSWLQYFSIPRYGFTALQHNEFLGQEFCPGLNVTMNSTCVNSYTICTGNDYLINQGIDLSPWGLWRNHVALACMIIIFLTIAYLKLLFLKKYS
The data set can be described thus: Vesicular transport assay, inside-out membrane vesicles expressing rat Bcrp. The following applies: positive substrate 20 μM, 10 min; rat Bcrp. On the procedure: as §1, §2

Substrate in data set [1]: O=C(/C=C/c1ccc(O)c(O)c1)O[C@H](Cc1ccc(O)c(O)c1)C(=O)O
The data set can be described thus: cells, lysate or membranes named. As to conditions: 5 min incubation, concentrations in Table 1, 37.0 °C.

Substrate in data set [2]: O=C(O)c1ccc(O)c(O)c1
Kind of data set: cells, lysate or membranes named. The following applies: 5 min incubation, concentrations in Table 1, 37.0 °C.

Substrate in data set [3]: O=C(O)Cc1c(/C=C/C(=O)OC(Cc2ccc(O)c(O)c2)C(=O)O)ccc(O)c1O
The data set can be described thus: cells, lysate or membranes named. The following applies: 5 min incubation, concentrations in Table 1, 37.0 °C.

Where [4] appears, read: other: human hepatic sinusoidal uptake OAT2 (also renal basolateral).
Setting [5] is: other: rat hepatic sinusoidal uptake Oat2 (also renal apical).
Setting [6] is: other: rat renal basolateral uptake Oat3.

In general, Vmax refers to the top rate of the reaction or transport when substrate is in excess.

Consider `CN(Cc1cnc2nc(N)nc(N)c2n1)c1ccc(C(=O)N[C@@H](CCC(=O)O)C(=O)O)cc1` [MTX, methotrexate, reference compound], for which the “TransportATP/TransportAMP ratio, positive substrate” value on human BCRP was 4.45 ± 0.67 (MTX); at rat Bcrp, 20.5 ± 3.2 (MTX).

B1: human OAT2 (Homo sapiens) (protein)
chain: MGFEELLEQVGGFGPFQLRNVALLALPRVLLPLHFLLPIFLAAVPAHRCALPGAPANFSHQDVWLEAHLPREPDGTLSSCLRFAYPQALPNTTLGEERQSRGELEDEPATVPCSQGWEYDHSEFSSTIATEWDLVCEQKGLNRAASTFFFAGVLVGAVAFGYLSDRFGRRRLLLVAYVSTLVLGLASAASVSYVMFAITRTLTGSALAGFTIIVMPLELEWLDVEHRTVAGVLSSTFWTGGVMLLALVGYLIRDWRWLLLAVTLPCAPGILSLWWVPESARWLLTQGHVKEAHRYLLHCARLNGRPVCEDSFSQEAVSKVAAGERVVRRPSYLDLFRTPRLRHISLCCVVVWFGVNFSYYGLSLDVSGLGLNVYQTQLLFGAVELPSKLLVYLSVRYAGRRLTQAGTLLGTALAFGTRLLVSSDMKSWSTVLAVMGKAFSEAAFTTAYLFTSELYPTVLRQTGMGLTALVGRLGGSLAPLAALLDGVWLSLPKLTYGGIALLAAGTALLLPETRQAQLPETIQDVERKSAPTSLQEEEMPMKQVQN
As to B1, the results for the Vmax in data set [1] (setting [4]), in data set [2] (setting [4]) and in data set [3] (setting [4]) were 0.000927 µmol/min/mg, 0.00382 ± 0.000177 µmol/min/mg and 0.00269 ± 0.000114 µmol/min/mg, respectively. Besides, the Vmax/Km in data set [1] (setting [4]) was found to be 19.1 µL/min/mg; in data set [3] (setting [4]), 24.3 µL/min/mg.

B2: rat Oat2 (Rattus norvegicus) (protein)
chain: MGFEDLLDKVGGFGPFQLRNLVLMALPRMLLPMHFLLPVFMAAVPAHHCALPGAPANLSHQDLWLEAHLPRETDGSFSSCLRFAYPQTVPNVTLGTEVSNSGEPEGEPLTVPCSQGWEYDRSEFSSTIATEWDLVCQQRGLNKITSTCFFIGVLVGAVVYGYLSDRFGRRRLLLVAYVSSLVLGLMSAASINYIMFVVTRTLTGSALAGFTIIVLPLELEWLDVEHRTVAGVISTVFWSGGVLLLALVGYLIRSWRWLLLAATLPCVPGIISIWWVPESARWLLTQGRVEEAKKYLLSCAKLNGRPVGEGSLSQEALNNVVTMERALQRPSYLDLFRTSQLRHISLCCMMVWFGVNFSYYGLTLDVSGLGLNVYQTQLLFGAVELPSKIMVYFLVRRLGRRLTEAGMLLGAALTFGTSLLVSLETKSWITALVVVGKAFSEAAFTTAYLFTSELYPTVLRQTGLGLTALMGRLGASLAPLAALLDGVWLLLPKVAYGGIALVAACTALLLPETKKAQLPETIQDVERKSTQEEDV
For the molecule B2, the maximum rate (Vmax) came out at 0.00062 µmol/min/mg in data set [1] (setting [5]), 0.00118 ± 1.9e-05 µmol/min/mg in data set [2] (setting [5]) and 0.000164 µmol/min/mg in data set [3] (setting [5]). Moreover, the Vmax/Km turned out to be 5.2 µL/min/mg in data set [1] (setting [5]) and 2.73 µL/min/mg in data set [3] (setting [5]).

B3: rat Oat3 (Rattus norvegicus) (protein)
chain: MTFSEILDRVGSMGPFQYLHVTLLALPVLGIANHNLLQIFTATTPVHHCRPPPNASIGPWVLPLDPNGKPEKCLRFVHLPNASLPNDTQRATEPCLDGWIYNSTRDTIVIEWDLVCSSNKLKEMAQSIFMAGILVGGPVIGELSDRFGRKPILTWSYLMLAASGSGAAFSPSLPVYMIFRFLCGCSISGISLSTVILNVEWVPTSMRAISSTSIGYCYTIGQFILSGLAYAIPQWRWLQLTSSAPFFIFSLLSWWVPESIRWLVLSGKYSKALKTLQRVATFNGKKEEGKKLTIEELKFNLQKDITSAKVKYGLSDLFRVSILRRVTFCLSLAWFSTGFAYYSLAMGVEEFGVNIYILQIIFGGVDIPAKFITILSLSYLGRRITQSFLLLLAGGAILALIFVPSEMQLLRTALAVFGKGCLSGSFSCLFLYTSELYPTVLRQTGMGISNVWARVGSMIAPLVKITGELQPFIPNVIFGTTALLGGSAAFFLLETLNRPLPETIEDIQNWHKQVQKTKQESEAEKASQIIPLKTGG
B3: in data set [1] (setting [6]), the maximal velocity (Vmax) was 3.58e-06 µmol/min/mg and the Vmax/Km worked out at 0.15 µL/min/mg. The maximal velocity (Vmax) in data set [2] (setting [6]) worked out at 6.68e-05 µmol/min/mg.
